For assay [1], the target named is T1, Pin1 (Homo sapiens, UniProt Q13526).
T1 construct: fusion protein containing full length Pin1 was bacterially expressed, purified; made in house
Description: Pin1 precipitation from interphase and mitotic HeLa extracts probed with antibodies to known mitotic phosphoproteins. It counts as binding. The method, then:
(§1) To detect Pin1-binding proteins, either HeLa cells were lysed in or Xenopus extracts were diluted in a buffer (buffer A) containing 50 mM Tris-HCl, pH 8.0, 200 mM NaCl, 100 mM NaF, 1 mM sodium orthovanadate, 10% glycerol, 1% Triton X100, 10 μg/ml aprotinin, 50 μg/ml phenylmethylsulfonyl fluoride and 1 mM DTT. The lysates were preclarified with boiled S. aureus bacteria (CalBiochem) and then incubated with 10 μl of agarose beads containing various GST-Pin1 proteins or control GST for 2 h at 4° C. The precipitated proteins were washed 5 times in the same buffer and subjected to immunoblotting analysis. Immunoprecipitation and immunoblotting analysis using MPM-2 antibody (Davis et al. 1983), which was kindly provided by J. Kuang, Pin1 antibodies (Lu et al., 1996, kindly provided by M. White or newly generated), anti-phospho.Tyr antibody (UBI), anti-Cdc25C (Ogg, et al., 1994) (from H. Piwnica-Worms and Santa Cruz Biotechnology), anti-Cdc27, anti-Plk1 (Zymed), anti-Cdc2 (Solomon, M. J., M. Glotzer, T. H. Lee, M. Philippe and M. W. Kirschner. Cell 63:1013-1024 (1991), anti-human Myt1, anti-human cyclin B1 and anti-Xenopus cyclin B were performed, as described previously in Lu and Hunter, 1995; Lu et al., 1996).
Several known mitotic regulators such as cyclin B, Cdc25, Myt1, Plk1 and Cdc27 are phosphorylated at mitosis. To identify at least a few of the many Pin1 binding proteins, Pin1-binding proteins were precipitated from HeLa cells, or Xenopus extracts and probed with antibodies specific for known mitotic phosphoproteins. As shown previously, levels of Plk1 and cyclin B1 increased at mitosis, whereas similar amounts of Cdc25C were present in interphase and mitotic HeLa cells. […] Similarly, only the mitotic, but not the interphase form of Xenopus Cdc27 was precipitated by Pin1.

For assay [2], the target named is T1, Pin1. Kind of assay: Confirmation of interaction between Pin1 and predicted Pin1 substrates. Particulars: Pin1 binding confirmed in vitro (SC35 inferred from colocalization). As to the method: On the basis of amino acid preferences deduced in the 6 positions surrounding the pS-P motif for optimal Pin1 binding, a weighted screening of the SWISS-PROT sequence database. Protein sequence database screening was performed with the program INDOVINATOR, using an entropy-based weighing technique to score for relative information content at each amino acid position flanking the pS/pT-P motif with the quantitative peptide library results, which are shown qualitatively in Table 3. […] Many of these proteins are involved in regulation of the cell cycle, cytoskeletal/spindle structure, DNA replication, transcription or RNA processing (Table 4).
Several of these predicted proteins, such as Rab4, Cdc25 and NIMA, undergo mitosis-specific phosphorylation (R. Heald and F. McKeon, Cell 61:579 (1990); E. Bailly, et al., Nature 350:715 (1991); A. Blangy, et al., Cell 83:1159 (1995): J. Kuang, et al., Mol. Biol. Cell 5:135 (1994); X. S. Ye, et al., EMBO J. 14:986 (1995)). Cdc25 and NIMA also binds to Pin1 in a phosphorylation-dependent manner, as described herein. Other proteins identified in this search, however, had not been previously suspected of interacting with Pin1; therefore, a few were further investigated as example cases. […] Thus, Pin1 binds a wide functional range of mitotic phosphoproteins.

Assay [3] addresses T1, Pin1. Description: Precipitation with GST-Pin1 beads of synthesized phosphoproteins incubated with interphase and mitotic Xenopus extracts. It counts as binding. Conditions: mitotic Xenopus extracts. On the set-up: key: +: a week but above background interaction; ++: readily detectable interaction; +++: strong interaction. As to the method:
The binding between Pin1 and all selected mitotic phosphoproteins was assayed by incubating synthesized proteins with interphase and mitotic Xenopus extracts, followed by precipitation with GST-Pin1beads. The Pin1 interactions with those proteins indicated with * were also confirmed by GST-Pin1 pull-down assay from endogenous interphase and mitotic HeLa cell extracts. +, a week but above background interaction; ++, readily detectable interaction; +++, strong interaction.
The mitotic phosphoproteins were translated in vitro using the TNT coupled transcription/translation kit (Promega) in a total volume of 10 μl in the presence of 8 μCi [^35S]methionine (1000 Ci/mmol) for 2 h at 30° C. They were then incubated in xenopus interphase and mitotic extracts as described (Stukenberg et al., 1997). These incubated clones were precipitated by Pin1 beads as described below. The Xenopus Mos and Weel clones were a kind gift of M. Murakami, G, F. Woude and J. Cooper; the Xenopus Cdc25 clone was a generous gift of W. Dunphy, T3 and T3S2 Cdc25 mutants were kindly provided by J. Maller (Izumi and Maller, 1993).
as §1
To gain a sense of the generality of the interaction between Pin1 and mitotic phosphoproteins and to confirm the Pin1 interaction with target proteins is indeed mediated by phosphorylation, the ability of Pin1 to bind other known mitotic phosphoproteins and a set of mitotic phosphoproteins identified by a systematic phosphoprotein screen (Stukenberg et al., Curr Biol 7:338-348 (1997). Proteins synthesized in vitro were phosphorylated in a cell cycle specific manner by incubating them in either Xenopus interphace or mitotic extracts. These labeled protein were subsequently incubated with GST-Pin1 beads that were extensively washed and the bound proteins analyzed by SDS-PAGE. To validate this method, Cdc25 was first tested. Again, the mitotically phosphorylated form of in vitro translated Cdc25 could be precipitated by GST-Pin1 beads. However, Cdc25 was not recognized by Pin1 if it was incubated in interphase extracts. […] Out of the 13 mitotic phosphoproteins examined, Pin1 bound 10 in a mitosis and phosphorylation-dependent manner (summarized in Table 1), including Weel, MP75 and MP110, MP75 and MP110 are Xenopus proteins related to microtubule-associated protein E-MAP-115 and the fission yeast G2 transcription factor Cdc5, respectively.

The test system of another assay is Cdc25, Cdc27. Kind of assay: Binding of GST-Pin1 mutants to Cdc25 or Cdc27. As to the method: as §1
Several known mitotic regulators such as cyclin B, Cdc25, Myt1, Plk1 and Cdc27 are phosphorylated at mitosis. […]

Another assay relates to MPM-2 antigens. Kind of assay: GST-Pin1 pull-down / depletion of MPM-2 antigens from HeLa cell extracts, MPM-2 immunoblotting. The format is binding, human. Particulars: mitotic HeLa cell extracts, GST fusion proteins. The method, then:
as §1
To determine whether GST-Pin1 can deplete MPM-2 antigens and to estimate what concentrations of Pin1 are required to completely deplete MPM-2 antigens, mitotic extracts were incubated with different amounts of GST-Pin1, followed by analyzing MPM-2 antigens remaining in the depleted supernatants. The total cellular Pin1 concentration in HeLa cells was estimated to be about 0.5 μM, based on immunoblotting analysis using anti-Pin1 antibodies with recombinant Pin1 protein as a standard.
To determine if the Pin1 mutants interact with mitotic phosphoproteins, GST-Pin1, -Pin1^R68,69A and -Pin1^H59A fusion proteins were incubated with interphase or mitotic HeLa cell extracts and associated proteins subjected to MPM-2 immunoblotting analysis. […] A few proteins including the most strongly reacting p55 band could still be recognized. […] Thus, mutating the residues that are implicated in binding either the substrate's putative phosphate group or the substrate's Pro residue abolish the ability of Pin1 to bind MPM-2 antigens.
On the technique in general: A western blot detects proteins with antibodies after separation by electrophoresis.

T1 sequence (Q13526 whole entry, the tested form may be a part): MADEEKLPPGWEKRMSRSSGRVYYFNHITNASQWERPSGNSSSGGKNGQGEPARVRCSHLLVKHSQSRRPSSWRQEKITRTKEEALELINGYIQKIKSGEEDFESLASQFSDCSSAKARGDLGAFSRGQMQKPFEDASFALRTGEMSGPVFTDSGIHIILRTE

For the molecule “Plk1: Polo-like kinase, mitotic phosphoprotein”, in the assay with Pin1 [1], the “precipitation by Pin1” value is “bound selectively only to the mitotically hyperphosphorylated form”. Also, in the assay with Pin1 [2], the “Binding Confirmed” value was “Yes”. Also, in the assay with Pin1 [3], the “Interaction with Pin1, Mitotic” value is given as “+++”.

For the molecule “Pin1^H59A: Pin1 mutant with Ala substitution at His-59”, the “interaction with Cdc25 or Cdc27” value in the assay on Cdc25, Cdc27 is listed as “neither mutant Pin1^R68,69A nor Pin1^H59A interacted with Cdc25 or Cdc27”. In addition, in the assay with MPM-2 antigens, the “binding of MPM-2 antigens” value is reported as “significantly reduced compared to the wild-type protein”.

Take “PTP-1B: protein hyperphosphorylated during mitosis”: in the assay with Pin1 [1], the “precipitation by Pin1” value is “not precipitated by Pin1 in either interphase or mitotic extracts”.

B1: Cdc25C: cell cycle regulatory protein, predicted Pin1 substrate; human Cdc25C in HeLa extracts (protein)
chain: STELFSSTREEGSSGSGPSFRSNQRKMLNLLLERDTSFTVCPDVPRTPVGKFLGDSANLSILSGGTPKRCLDLSNLSSGEITATQLTTSADLDETGHLDSSGLQEVHLAGMNHDQHLMKCSPAQLLCSTPNGLDRGHRKRDAMCSSSANKENDNGNLVDSEMKYLGSPITTVPKLDKNPNLGEDQAEEISDELMEFSLKDQEAKVSRSGLYRSPSMPENLNRPRLKQVEKFKDNTIPDKVKKKYFSGQGKLRKGLCLKKTVSLCDITITQMLEEDSNQGHLIGDFSKVCALPTVSGKHQDLKYVNPETVAALLSGKFQGLIEKFYVIDCRYPYEYLGGHIQGALNLYSQEELFNFFLKKPIVPLDTQKRIIIVFHCEFSSERGPRMCRCLREEDRSLNQYPALYYPELYILKGGYRDFFPEYMELCEPQSYCPMHHQDHKTELLRCRSQSKVQEGERQLREQIALLVKDMSP
For B1, the “precipitation by Pin1” value with Pin1 [1] is “bound selectively only to the mitotically hyperphosphorylated form”. Also, in the assay with Pin1 [2], the “Binding Confirmed” value was “Yes”.

B2: NIMA: mitotic phosphoprotein, kinase (protein)
chain: MAIALAEADKYEVLEKIGCGSFGIIRKVKRKSDGFILCRKEINYIKMSTKEREQLTAEFNILSSLRHPNIVAYYHREHLKASQDLYLYMEYCGGGDLSMVIKNLKRTNKYAEEDFVWRILSQLVTALYRCHYGTDPAEVGSNLLGPAPKPSGLKGKQAQMTILHRDLKPENIFLGSDNTVKLGDFGLSKLMHSHDFASTYVGTPFYMSPEICAAEKYTLRSDIWAVGCIMYELCQREPPFNARTHIQLVQKIREGKFAPLPDFYSSELKNVIASCLRVNPDHRPDTATLINTPVIRLMRREVELNNLSRAARKREEATMQKAKDVEQAFAKLEKEKQQIRSELENSIRREWEVKARLEIDRQVQNELDKLRKRFECEVQDRVAQEVEKQRRNANYREDASLRSSGHSSQMSSSNSEDSDFPSSTDISQLSLESPTNKAAKLPKKESRTPFTRSKTVVDSPMDIQMAEPSPISIASLSLSPRRTSATYSGKNIFAEGERKRPKFEPTLAYSDDEDDTPELPSPTRPKVKPDPFKAPSRPLLRQNTTALMQKLSTQPPIFPANPSRLPQMSAPDVRESKSRSPHRRLSKIPSSANLAADAGSPTRKNGVKSSPSKMNGGDEMFKAVMQRNMGGRTLVELAQARAGGRPIDEVKRCASDSRSGCSVPMKSADRDPPAVWDPERDEMPSPFLARGRKVIRNLR
As to B2, in the assay with Pin1 [2], the “Binding Confirmed” value is reported as “Yes”. Moreover, the “Interaction with Pin1, Mitotic” value in the assay with Pin1 [3] is on record as “+++”.

Values taken from patent US6462173B1, “Inhibitors of phosphoserine and phosphothreonine-proline-specific isomerases” (Max-Planck-Gesellschaft zur Forderung der, priority 1997, dated 2002).
